Laboratory results as given in patent US20190330336A1.

Legend:
[1] = molecular target: HIS-tagged (ACRO) or biotinylated recombinant human LAG3 protein (human) (UniProt P18627); assay: FACS competition: antibody inhibits rhLAG3 binding to MHCII on DAUDI cells
[2] = molecular target: human LAG3-Fc, R&D Systems #2319-L3 (human) (UniProt P18627); assay: SPR (Biacore), antibody captured on anti-Flag chip, human LAG3-Fc analyte, 25 C, 1:1 fit
Chain of human LAG3-Fc, R&D Systems #2319-L3 (human) (P18627 23-450): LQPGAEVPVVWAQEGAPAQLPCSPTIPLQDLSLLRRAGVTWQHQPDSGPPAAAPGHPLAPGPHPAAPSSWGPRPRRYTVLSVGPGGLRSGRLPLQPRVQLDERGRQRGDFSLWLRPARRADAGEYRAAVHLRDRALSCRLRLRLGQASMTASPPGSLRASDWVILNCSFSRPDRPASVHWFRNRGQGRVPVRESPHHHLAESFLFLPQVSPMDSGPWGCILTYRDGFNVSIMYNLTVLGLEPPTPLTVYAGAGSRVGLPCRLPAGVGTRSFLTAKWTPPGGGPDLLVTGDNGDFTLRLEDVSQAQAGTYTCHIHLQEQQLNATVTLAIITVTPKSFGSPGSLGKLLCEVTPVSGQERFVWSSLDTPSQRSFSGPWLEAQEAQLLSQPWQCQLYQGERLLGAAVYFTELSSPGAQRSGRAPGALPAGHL

Chain of HIS-tagged (ACRO) or biotinylated recombinant human LAG3 protein (human) (P18627 23-450 limits assumed): as the sequence (P18627 23-450) above

IC50 [1]: 1.7 nM
Kd [2]: 43.3 nM
koff [2]: 0.071 s⁻¹
kon [2]: 1.64e+06 M⁻¹ s⁻¹
B1: SRP1627-A02 (scFv, from a related filing, V domains shown, part only)
VH: QVQLVQSGAEVKKPGSSVKVSCKASGFNINDYFMHWVRQAPGQGLEWIARIDPWNGDTEYAPKFQGRVTITADESTSTAYMELSSLRSEDTAVYYCGMSDALDYWGQGTLVTVSS
VL: DVVMTQSPLSLPVTLGQPASISCKSSQSLLDSDGKTYLNWFQQRPGQSPRRLIYLVSKLDSGVPDRFSGSGSGTDFTLKISRVEAEDVGVYYCSHGNPVPQTFGQGTKVEIK
